Changes are numbered by the printed parent chain. Names and notes keep the numbering of the source.
B1: R2-WT, tandem RING dimer construct of rhesus monkey TRIM5alpha (protein)
chain: ASGILLNVKEEVTCPICLELLTEPLSLHCGHSFCQACITANHKKSMLYKEGERSCPVCRISYQPENIQPNRHVANIVEKLRGSASGILLNVKEEVTCPICLELLTEPLSLHCGHSFCQACITANHKKSMLYKEGERSCPVCRISYQPENIQPNRHVANIVEKLREVKLSPEEGQ
B2: R1-I77R, RING domain construct of rhesus monkey TRIM5alpha with the I77R mutation (protein)
chain: ASGILLNVKEEVTCPICLELLTEPLSLHCGHSFCQACITANHKKSMLYKEGERSCPVCRISYQPENIQPNRHVANRVEKLREVKLSPEE
B3: R3-I77R, trimeric RING-foldon construct of rhesus monkey TRIM5alpha with the I77R mutation (protein)
chain: ASGILLNVKEEVTCPICLELLTEPLSLHCGHSFCQACITANHKKSMLYKEGERSCPVCRISYQPENIQPNRHVANRVEKLREVKLSPEEGQKVDGYIPEAPRDGQAYVRKDGEWVFLSTFLHHHHHH
B4: R3-WT, trimeric RING construct of rhesus monkey TRIM5alpha fused to T4 fibritin foldon (protein)
chain: B3 chain with R76I

How the values were obtained:
[1] = target: AF594-UBE2N~AF488-Ub/UBE2V2 conjugate, P61088
Chain of AF594-UBE2N~AF488-Ub/UBE2V2 conjugate, P61088 (P61088 whole entry, looked up): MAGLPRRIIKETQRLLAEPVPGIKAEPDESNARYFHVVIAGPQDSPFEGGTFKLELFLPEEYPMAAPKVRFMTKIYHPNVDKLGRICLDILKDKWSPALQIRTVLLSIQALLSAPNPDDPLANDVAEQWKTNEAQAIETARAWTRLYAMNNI

[2] = target: AF594-UBE2W~AF488-Ub conjugate, Q96B02
Chain of AF594-UBE2W~AF488-Ub conjugate, Q96B02 (Q96B02 whole entry, looked up): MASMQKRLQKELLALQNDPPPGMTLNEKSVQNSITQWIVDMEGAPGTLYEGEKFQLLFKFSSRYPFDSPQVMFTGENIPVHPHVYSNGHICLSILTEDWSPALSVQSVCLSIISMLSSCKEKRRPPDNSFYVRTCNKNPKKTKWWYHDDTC

Protein	E3 activity (kcat/Km) for ubiquitin discharge, FRET ubiquitin discharge assay [1]	E3 activity (initial slope of Michaelis-Menten curve of FRET decay amplitude), FRET ubiquitin discharge assay [2]	E3 activity per RING monomer for ubiquitin discharge, FRET ubiquitin discharge assay [1]
B1	The E3 activity of the R2-WT is also significantly higher than that of the R1-WT	–	–
B2	catalysis of ubiquitin discharge from the UBE2N/V2-Ub conjugate is virtually abolished by the I77R mutation in the R1-177R and R3-177R constructs	the R3-177R and R1-177R constructs retained less than 10% of the R3-WT and R1-WT E3 activity, respectively	–
B3	catalysis of ubiquitin discharge from the UBE2N/V2-Ub conjugate is virtually abolished by the I77R mutation in the R1-177R and R3-177R constructs	the R3-177R and R1-177R constructs retained less than 10% of the R3-WT and R1-WT E3 activity, respectively	–
B4	–	significantly higher activity of the R3-WT construct in comparison to R2-WT	the E3 activity per RING monomer is lower in the R3-WT construct than in R2-WT

Reference: patent US20260185137
